Key:
[1] = biological target: N-MBP-ORF3-A647 (not stated | Hepatitis E virus genotype 1) (UniProt O90299); assay: MST
[2] = biological target: N-MBP-ORF3-A647 (not stated | Hepatitis E virus genotype 1) (UniProt O90299); assay: MST; pH 7
[3] = biological target: N-MBP-ORF3-A647 (not stated | Hepatitis E virus genotype 1) (UniProt O90299); assay: MST; as a7 but at pH 6.0 (pH series), 30 °C
[4] = biological target: N-MBP-ORF3-A647 (not stated | Hepatitis E virus genotype 1) (UniProt O90299); assay: MST; as a7 but at pH 8.0 (pH series), 30 °C
[5] = biological target: N-MBP-ORF3-A647 (not stated | Hepatitis E virus genotype 1) (UniProt O90299); assay: MST; as a7 but at 35 °C (temperature series), pH 7
[6] = biological target: N-MBP-ORF3-A647 (not stated | Hepatitis E virus genotype 1) (UniProt O90299); assay: MST; as a7 but at 37 °C (temperature series), pH 7
[7] = biological target: N-MBP-ORF3-A647 (not stated | Hepatitis E virus genotype 1) (UniProt O90299); assay: MST; as a7 but at 41 °C (temperature series), pH 7

N-MBP-Hel (domain or fragment)
EC50 [1]: 87.9 nM

N-MBP-X (domain or fragment)
EC50 [1]: 5.6 nM

N-MBP-Plp (domain or fragment)
EC50 [1]: 0.3 nM
EC50 [2]: 1.5 nM
EC50 [3]: 19 nM
EC50 [4]: 6 nM
EC50 [5]: 2.8 nM
EC50 [6]: 16 nM
EC50 [7]: 19 nM

N-MBP-Pvx (domain or fragment)
EC50 [1]: 1.6 nM

N-MBP-Met (domain or fragment)
EC50 [1]: 33.7 nM

Source: article PMC4604457
